The record followed here is publication PMC4755762.

Assay [1] addresses CD11c_(614-682b)-YFP/CD18 chimera on CHO cells (human) (UniProt P11215). As to the kind of experiment: flow cytometry on cells; 2x10^5 CHO cells expressing YFP-fused integrins with different concentrations of CyaA-biotin; streptavidin-PE; mean fluorescence intensities against CyaA concentration. Background: Flow cytometry measures light scatter and fluorescence of single cells or particles in a stream.

Assay [2] addresses CR3 chimera with residues 686 to 1152 of CD11b replaced by the corresponding segment of CD11c, with CD18, on CHO cells (human) (UniProt P11215). As to the kind of experiment: flow cytometry on cells.
The target in assay [3] is CD11b_(342-424c)/CD18 chimera on CHO cells (human) (UniProt P11215). As to the kind of experiment: flow cytometry on cells.
For assay [4], the target named is CR3 chimera with residues 33 to 115 of CD11b replaced by the corresponding segment of CD11c, with CD18, on CHO cells (human) (UniProt P11215). As to the kind of experiment: flow cytometry on cells.
Assay [5] has as its target CD11b_(614-682c)/CD18 chimera on CHO cells (human) (UniProt P11215). As to the kind of experiment: flow cytometry on cells.

Regarding “adenylate cyclase toxin-hemolysin (CyaA) of Bordetella pertussis, intact (from UniProt P0DKX7 1-1706) (natural protein)”, the fold higher CyaA binding than CD11c-YFP/CD18 in assay [1] worked out at 24 fold. The fold lower CyaA binding than CD11b-YFP/CD18 in assay [1] amounted to 1.7 fold. Moreover, the CyaA binding, percent of binding to intact CD11b/CD18 in assay [2] was determined as 89%; in assay [3], 61%; in assay [4], 72%. The fold decrease of CyaA binding against intact CR3 in assay [5] turned out to be 10 fold.
